Laboratory results reported in patent publication US20220017612A1 (TILOS THERAPEUTICS, published 2022).
Each block holds one binder with its values, some of them ahead of it.

Columns and labels:
[1] = biological target: T1, fusion protein of a human IgG1 Fc domain and human LAP-TGFβ1 (human, UniProt P01137 30-390); assay: BLI, 2:1 model, component 2
T1 construct: printed both as Fc-huB1 and LAP-TGFβ-Fc; also called Fc-huB1; Fc-human LAP
Protocol: (§1) The 20E6_H0.2aL1_IgG1 antibody was biotinylated using EZ-Link SulfoNHS-LC-Biotin (ThermoFisher). A streptavidin-functionalized tip was equilibrated in binding buffer (10 mM sodium phosphate, 150 mM sodium chloride, 1% (w/v) bovine serum albumin, 0.05% (w/v) sodium azide, pH 7.4) and dipped in a 10 μg/mL solution of biotinylated anti-LAP in binding buffer for 30 seconds to load the tip with antibody. The antibody-loaded tip was then washed in binding buffer and placed in a solution containing 0-24 nM of a fusion protein having a human IgG1 Fc domain fused to either human LAP-TGFβ1, human LAP-TGFβ2 or human LAP-TGFβ3. The antigen was allowed to bind to antibody for 5 minutes (association phase), and then the tip was moved to binding buffer (dissociation phase). The association and dissociation phases were fit to a 2:1 heterogenous ligand binding model to determine the binding rate constants. As shown in FIG. 21A and Table 17, 20E6_H0.2aL1_IgG1 bound with sub-nanomolar affinity to human LAP-TGFβ1, but not to human LAP-TGFβ2 (FIG. 21B) or LAP-TGFβ3 (FIG. 21C).
(§2) The binding of 20E6_H0.2aL1_IgG1 antibody and 20E6_H0.2aL1_hIgG4mut antibody to LAP-TGFβ1 of various species was examined by bio-layer interferometry using the method described in Example 12, except that the antibody-loaded tip was placed in a solution containing 0-24 nM of a fusion protein having a human IgG1 Fc domain fused to either mouse, rat, cynomolgus monkey, or human LAP-TGFβ1.

[2] = biological target: T2, fusion protein of a human IgG1 Fc domain and cynomolgus monkey LAP-TGFβ1 (human; cynomolgus monkey); assay: BLI, 2:1 model, component 2
T2 construct: also called cynomolgus monkey LAP-TGFβ-Fc
Protocol: as §1, §2

[3] = biological target: T3, fusion protein of a human IgG1 Fc domain and rat LAP-TGFβ1 (human; rat, UniProt P17246 30-390, limits assumed); assay: BLI, 2:1 model, component 2
T3 construct: also called rat LAP-TGFβ-Fc
Protocol: as §1, §2

[4] = biological target: T4, fusion protein of a human IgG1 Fc domain and mouse LAP-TGFβ1 (human; mouse, UniProt P04202 30-390); assay: BLI, 2:1 model, component 2
T4 construct: also called mouse LAP-TGFβ-Fc
Protocol: as §1, §2

[5] = biological target: T5, fusion protein of a human IgG1 Fc domain and human LAP-TGFβ3 (human, UniProt P10600 24-412); assay: bio-layer interferometry, biotinylated antibody on streptavidin tip, Fc-huB3 in solution
T5 construct: also called Fc-huB3; human LAP-TGFβ3-Fc
T5 sequence: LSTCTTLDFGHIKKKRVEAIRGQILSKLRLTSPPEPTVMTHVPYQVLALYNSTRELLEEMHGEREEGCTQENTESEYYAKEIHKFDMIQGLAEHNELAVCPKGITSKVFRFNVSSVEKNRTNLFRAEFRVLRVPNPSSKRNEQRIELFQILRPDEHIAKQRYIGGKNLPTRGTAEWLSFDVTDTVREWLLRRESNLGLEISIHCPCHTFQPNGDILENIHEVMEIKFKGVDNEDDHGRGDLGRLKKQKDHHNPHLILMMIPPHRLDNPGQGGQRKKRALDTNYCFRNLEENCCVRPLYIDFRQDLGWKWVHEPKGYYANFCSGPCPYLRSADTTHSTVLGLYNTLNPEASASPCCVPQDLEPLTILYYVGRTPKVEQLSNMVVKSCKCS
Protocol: as §1

[6] = biological target: T6, human LAP-TGFβ2 overexpressed on HT1080 cells (human, UniProt P61812 21-414); assay: flow cytometry titration, HT1080-huB2 cells
T6 construct: also called HT1080-huB2
T6 sequence: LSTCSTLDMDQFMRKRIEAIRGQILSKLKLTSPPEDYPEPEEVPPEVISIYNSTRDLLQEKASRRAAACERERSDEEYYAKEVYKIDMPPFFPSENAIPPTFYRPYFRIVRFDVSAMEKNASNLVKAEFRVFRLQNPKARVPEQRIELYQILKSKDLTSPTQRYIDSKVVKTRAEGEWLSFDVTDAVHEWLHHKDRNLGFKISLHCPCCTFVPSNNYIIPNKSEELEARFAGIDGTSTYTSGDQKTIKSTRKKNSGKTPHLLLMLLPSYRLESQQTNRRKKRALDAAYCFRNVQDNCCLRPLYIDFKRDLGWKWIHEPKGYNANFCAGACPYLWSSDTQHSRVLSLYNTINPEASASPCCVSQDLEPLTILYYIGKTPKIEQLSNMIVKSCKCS
Protocol: This Example describes the binding of anti-LAP antibodies to LAP-TGFβ isoforms and LAP-TGFβ variants. In addition to antibodies 28G11_hIgG1, 22F9_hIgG1, and 20E6_hIgG1, anti-LAP antibodies 17G8_hIgG1, 24E3_hIgG1, and 2C9_(hyb) were also tested in this experiment. Briefly, 4×10⁵ each of (a) HT1080 cells, (b) HT1080 cells overexpressing human LAP-TGFβ1, (c) HT1080 cells overexpressing human LAP-TGFβ2, (d) HT1080 cells overexpressing human LAP-TGFβ3, (e) HT1080 cells overexpressing murine LAP-TGFβ1, (f) P3U1 cells, (g) P3U1 cells overexpressing LAP-TGFβ1 and GARP, and (h) P3U1 cells overexpressing LAP-TGFβ1 and LRRC33 were cultured in 96-well plates. The plates were centrifuged for 5 min at 1,500 rpm, liquid was removed, and cells were resuspended with 200 μL FACS buffer. The plates were centrifuged again, diluted primary antibody was added to each well, and the plates were incubated on ice for 20 minutes, followed by centrifugation. The cells were resuspended in 200 μL FACS buffer, centrifuged again, and resuspended in 50 μL diluted secondary antibody (Alexa647-anti-Human IgG or APC-anti-Mouse IgG). The plates were incubated on ice for 20 minutes in the dark, washed twice with 200 μL FACS buffer, and cells from each well (in 200 μL FACS buffer) were read on the Attune NXT instrument.

T1 sequence (P01137 30-390 limits assumed): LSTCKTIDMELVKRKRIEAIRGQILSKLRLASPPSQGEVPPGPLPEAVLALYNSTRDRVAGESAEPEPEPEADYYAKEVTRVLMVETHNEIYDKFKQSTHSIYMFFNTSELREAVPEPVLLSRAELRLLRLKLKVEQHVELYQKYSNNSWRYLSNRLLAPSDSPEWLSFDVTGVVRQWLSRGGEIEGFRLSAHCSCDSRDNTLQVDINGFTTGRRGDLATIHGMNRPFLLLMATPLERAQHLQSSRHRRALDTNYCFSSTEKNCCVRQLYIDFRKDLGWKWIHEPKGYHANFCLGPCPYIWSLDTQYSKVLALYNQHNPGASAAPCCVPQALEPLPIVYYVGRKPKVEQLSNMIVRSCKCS
T4 sequence (P04202 30-390 limits assumed): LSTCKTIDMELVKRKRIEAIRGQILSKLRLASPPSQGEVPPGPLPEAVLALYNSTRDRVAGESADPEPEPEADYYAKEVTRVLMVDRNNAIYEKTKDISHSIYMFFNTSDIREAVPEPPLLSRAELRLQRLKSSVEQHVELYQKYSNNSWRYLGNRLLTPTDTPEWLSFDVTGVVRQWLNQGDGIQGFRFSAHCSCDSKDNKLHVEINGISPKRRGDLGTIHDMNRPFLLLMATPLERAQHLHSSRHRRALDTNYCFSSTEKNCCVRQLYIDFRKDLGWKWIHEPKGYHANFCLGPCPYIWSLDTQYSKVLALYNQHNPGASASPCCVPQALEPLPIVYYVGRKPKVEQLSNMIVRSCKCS
T3 sequence (P17246 30-390 limits assumed): as the sequence (P04202 30-390 limits assumed) above, with E93D, S99T, L131F, S134T, K202V counted along it

Kd [1]: 0.97 nM
koff [1]: 0.000657 s⁻¹
kon [1]: 680000 M⁻¹ s⁻¹
Kd [2]: 0.71 nM
koff [2]: 0.000728 s⁻¹
kon [2]: 1.03e+06 M⁻¹ s⁻¹
Kd [3]: 0.68 nM
koff [3]: 0.000768 s⁻¹
kon [3]: 1.14e+06 M⁻¹ s⁻¹
Kd [4]: 0.56 nM
koff [4]: 0.00039 s⁻¹
kon [4]: 700000 M⁻¹ s⁻¹
binding result [5]: no binding (tested: 24 nM)
B1: 20E6_H0.2aL1_hIgG1 (antibody)
heavy: not shown
light: DIQMTQSPSSLSASVGDRVTITCRASQDITNYLNWYQQKPGKAVKLLIYYTSRLHSGVPSRFSGSGSGTDYTLTISSLQPEDFATYFCQQGDTLPWTFGQGTKLEIKRTVAAPSVFIFPPSDEQLKSGTASVVCLLNNFYPREAKVQWKVDNALQSGNSQESVTEQDSKDSTYSLSSTLTLSKADYEKHKVYACEVTHQGLSSPVTKSFNRGEC
notes: also called 20E6_H0.2aL1_IgG1; humanized 20E6

binding result [6]: no binding (tested: about 800 ng/well)
B2: 22F9_hIgG1 (antibody, V domains shown)
VH: QVQLQQPGAELVKPGASVKLSCKASGYTFTSYWMHWVKQRPGQGLEWIGMIHPNSGSTNYNEKFKSKATLTVDKSSSTAYMQLSSLTSEDSAVYYCAYYDYDGFFDVWGTGTTVTVSS
VL: DIVLTQSPASLDVSLGQRATISCRASKSVSTSGYSYMHWYQQKSGQPPKLLIYLASNLESGVPARFSGSGSGTHFTLNIHPVEEEDAATYYCQHSRELPYTFGGGTKLEIK
